According to patent publication US20100135997A1:
Changes are numbered by the printed parent chain.

B1: c138 Fc dimer (polypeptide homodimer Fc fusion) (Fc fusion)
chain: HLPKPTLWAEPGSVITMDQPVTLRCQGGQETQQYRLYREKKTAPWITRIPQELVKKGQFPIPSITWEHAGRYRCYYGSDTRQWSASSDPLELVVTGVYIKPTLSAQPSPVVNSGGNVTLQCDSPFQADGFILCKEGEDDHPQCLNSQPHARGSSRAIFSVGPVSPSRRWRYRCYAYDSNSPYEWSLPSDLLELDVDGRMDPSRSVECPPCPAPPVAGPSVFLFPPKPKDTLMISRTPEVTCVVVDVSHEDPEVKFNWYVDGVEVHNAKTKPREEQYNSTYRVVSVLTVLHQDWLNGKEYKCKVSNKGLPSSIEKTISKAKGQPREPQVYTLPPSREEMTKNQVSLTCLVKGFYPSDIAVEWESNGQPENNYKTTPPVLDSDGSFFLYSKLTVDKSRWQQGNVFSCSVMHEGLHNHYTQKSLSLSPGK
B2: c64 Fc dimer (ILT Fc fusion homodimer) (Fc fusion)
chain: B1 chain with P124Q, F125V, Q126A, A127F
B3: c132 Fc dimer (ILT Fc fusion homodimer) (Fc fusion)
chain: B1 chain with Q33E, R81S, D139E, R170W, D177M, N179W

Target: Class I pMHC on target cells (Mel 624)
Test: cell-based or functional assay

IC50 of inhibition of T cell activation (IFN-γ ELISPOT; Mel 624 target cells, MART-1 specific T cell clone) [nM] | Binder
0.4 | B1
2.3 | B2
0.45 | B3
